# Assay results published in US9383360B2, “Compositions and methods relating to lyme disease” (The United States of America, as represented by the …, priority 2012, dated 2016).
# B1: BbHtrA: Recombinant wild type B. burgdorferi HtrA serine protease, mature protein amino acids 38-474, expressed in E. coli (SEQ ID NO:1, 9) (protein, listed as Borrelia burgdorferi)
# chain: EEKDNTVRALQDSFREVSKKILPSSVEVHATGVIKQSFPIPFFFFDMPEFDSERKSNWAGSGVIIGRDSQKKSLFYVVTNSHVVDKATELEVVSYDKKKHKAKLIGKDEKKDIALISFESDDATIKVADLGDSDKLEIGDWVMAVGSPFQFSFTVTAGIVSGLQRSANPNLQSRNLFIQTDAAINRGNSGGPLVNIKGEVIGINAWIASNSGGNIGLGFAIPVNNIKSTVDFFLKGKKIESAWLGISFYPLKTRDSEVLKSLGVESNDVSAAIIASLYPGSPAVKSGLRAGDIIMKVNGVSMSVFQDVTSYISDFYAGEKVNVEILRGNVKKNIEIVLAVRPKDKELSSSKMLPGFVVYPLVEDIKAQLNLRNWIKGVVVDYIDKNLASNIKMKSGDVILSVNSKSVSNLREFYDALEVGKNTYKILRGNDSFKITF
# Legend:
# [1] = tested on: chondrocyte aggregate cultures; assay: Chondrocyte cytokine induction assay (Proteome Profiler Cytokine Arrays); format: cell-based, human; conditions: for Cytokines released by chondrocytes in response: LPS, medium alone
# Description: Chondrocyte aggregate cultures are used which form an extensive extracellular matrix with components characteristic of articular cartilage including aggrecan and type II collagen as described in Welter, J. et al, BioTechniques, 2007, 42(6):732-737; and Solchaga, L. A. et al., Chondrogenic Differentiation of Bone Marrow-Derived Mesenchymal Stem Cells: Tips and Tricks, 2011, 698:253-278.
# To form the chondrocyte aggregate cultures, lx10^6 human mesenchymal stem cells (passage one, Lonza, catalog #PT-2501) were plated in a T150 flask (Corning) and cultured in growth media: mesenchymal stem cell basal media (MSCBM, Lonza, #PT-3238), mesenchymal growth supplements (SingleQuots, Lonza, #PT-4105), and 5 ng/ml recombinant human […] (Shenandoah Biotechnology). When confluent, cells were trypsin-released (0.5% trypsin EDTA, Gibco), expanded to two T150 flasks and fed with growth media every three days. When confluent, cells were harvested, resuspended in fresh growth media containing 5% DMSO and aliquots of 1×10^6 cells were cryopreserved in liquid nitrogen.
# Human mesenchymal stem cells were used to promote chondrogenesis and chondrocyte aggregate formation for use in these studies. Two vials of passage three cryopreserved cells were thawed, plated in growth media in two T150 flasks and then expanded to six T150 flasks as above. Cells were harvested (0.5% trypsin EDTA, Gibco), pooled, enumerated and induced to chondrogenic differentiation as follows. Cells were resuspended in defined chondrocyte differentiation media: high glucose DMEM (Gibco), 50 μg/ml ascorbic acid-2-phosphate (Sigma), 39.3 ng/ml dexamethasone (Sigma), […] L-proline (Sigma), ITS+Premix (BD Biosciences), 10 ng/ml transforming growth factor β-3 (Shenandoah Biotechnology) and 30 μg/ml gentamicin sulfate+15 ng/ml amphotericin-B (GA-1000, Lonza, #PT-4504E). High density aggregates were obtained by plating, on average, 3×10^5 cells per well in a conical bottom 96 well plate (Thermo Scientific), pelleting by centrifugation (5 minutes at 600 g), and incubation at 37° C. and 5% CO2. Pellets formed coherent spherical aggregates by day two of culture. After seven days, wide bore tips were used to transfer aggregates to V-bottom 96 well plates (Corning). Aggregates were maintained in differentiation media at 37° C. and 5% CO2 for 3-5 weeks and fed every two days until experimentation.
# For chondrocyte cytokine induction assays, 24 hours prior to experimentation, dexamethasone containing media was removed, aggregates were rinsed with DPBS (Gibco) and dexamethasone-free differentiation media was added. For experimentation, aggregates were transferred to 24 well plates (24 aggregates per condition), spent media was removed and fresh warmed dexamethasone-free media containing samples was added. Aggregates were then incubated at 37° C. and 5% CO2 for two days.
# Recombinant BbHtrA or BbHtrA^S226A was added to culture medium and incubated with chondrocyte aggregate cultures. BbHtrA and BbHtrA^S226A were purified using an E. coli system and was expected to contain endotoxin which would have a stimulatory effect on the chondrocytes. To control for endotoxin contamination (lipopolysaccharide, LPS), an endotoxin removal kit (Noragen) was used to remove the bulk of LPS from recombinant BbHtrAs. The relative toxicity of the amount remaining in the BbHtrA and BbHtrA^S226A samples was determined by a chromogenic Limulus Amoebocyte Lysate (LAL) method (Lonza, Walkersville, Md.). Prior to addition to aggregates, LPS (44 ng, 200 EU), BbHtrA^WT (20 μg, 27.9 EU LPS) and BbHtrA^S226A ([…], 1.99 EU LPS) were incubated in 1 mg/ml polymyxin B sulfate (Sigma) on ice for 30 min with occasional mixing. Warmed dexamethasone-free medium was then added to each test condition to a final volume of 1 ml. Control aggregates were maintained in untreated medium also containing polymyxin B sulfate. The final concentration for all test conditions was 60 μg/ml polymyxin B sulfate. […]
# Plasma fibronectin = assay: BbHtrA proteolysis assay, plasma fibronectin substrate; format: biochemical, human; conditions: incubated overnight or 96 hours, SDS-PAGE, FIG. 8A
# Experimental: (§1) For proteolysis assays described in Examples herein, purified protein substrates (200-600 nM) and proteases (100-150 nM) were diluted in assay buffer (50 mM HEPES, pH 7.4, 5 mM CaCl2) and incubated overnight at 37° C. Samples were boiled for 4 minutes to inactivate the proteases. Proteoglycans were deglycosylated by overnight incubation at 37° C. with 0.01 U chondroitinase ABC (Seikagaku). Reactions were stopped by the addition of SDS/PAGE sample buffer, boiled for 4 minutes, and electrophoresed on pre-cast Tris-glycine gels (BioRad). Reaction products were visualized by silver staining.
# BbHtrA generates pro-inflammatory amino terminal (Fnf-29) and carboxyl terminal (FnIII13-14) fibronectin fragments. […] Fibronectin was incubated with BbHtrA overnight (FIG. 8A, lane 1) or for 96 hours (FIG. 8A, lane 3). Reaction products were separated electrophoretically, and the bands were excised and analyzed by tandem LC MS/MS, FIG. 8B.
# Aggrecan = biological target: T1, Aggrecan (Bos taurus, UniProt P13608); assay: BbHtrA proteolysis assay, aggrecan substrate; format: biochemical, bovine, human; conditions: native bovine aggrecan, SDS-PAGE, FIG. 4B
# T1 construct: recombinant human aggrecan (G1-IGD-G2 domains)
# Experimental: as §1
# BbHtrA cleaved recombinant human aggrecan (G1-IGD-G2 domains) within the IGD (FIG. 4A). Cleavage of recombinant aggrecan generated three high molecular weight proteolytic fragments which migrated at ˜110 kd, ˜60 kd and ˜50 kd.
# BbHtrA also degraded native, fully glycosylated aggrecan (FIG. 4B, lane 5). Again, this degradation required BbHtrA catalytic activity (FIG. 4B, lane 6). The BbHtrA-generated aggrecan fragments appear to be a doublet, unlike those generated by HtrA1.
# (§2) Purified proteins were incubated with BbHtrA or BbHtrA^S226A as described herein. HtrA (also known as DegP) proteases belong to the family of serine proteases which contain a highly reactive serine residue in their active site. This serine (Ser210 in DegP) is part of the canonical His-Ser-Asp catalytic triad and mutation of the catalytic serine abolishes proteolytic activity (Skorko-Glonek et al., 1995). In BbHtrA, residues His119, Ser226 and Asp149 form the catalytic triad and mutation of serine 226 to alanine abolished proteolytic activity as expected (FIG. 5).
# Reaction products were separated by SDS-PAGE and silver stained. Native collagen II and recombinant tenascin C were not degraded by BbHtrA indicating selectivity for proteoglycans, E-cadherin and fibronectin. FIG. 5 is an image of SDS-PAGE analysis showing that BbHtrA degrades aggrecan, neurocan, versican, brevican, biglycan, decorin, E-cadherin, and casein.
# Decorin = assay: BbHtrA proteolysis assay, decorin substrate; format: biochemical, bovine, human; conditions: SDS-PAGE, FIG. 5
# Experimental: as §1, §2
# Reaction products were separated by SDS-PAGE and silver stained. Native collagen II and recombinant tenascin C were not degraded by BbHtrA indicating selectivity for proteoglycans, E-cadherin and fibronectin. […]
# [2] = spent medium of chondrocyte aggregates after 48 hours, cytokine array, background subtracted
# T1 sequence (P13608 17-2364): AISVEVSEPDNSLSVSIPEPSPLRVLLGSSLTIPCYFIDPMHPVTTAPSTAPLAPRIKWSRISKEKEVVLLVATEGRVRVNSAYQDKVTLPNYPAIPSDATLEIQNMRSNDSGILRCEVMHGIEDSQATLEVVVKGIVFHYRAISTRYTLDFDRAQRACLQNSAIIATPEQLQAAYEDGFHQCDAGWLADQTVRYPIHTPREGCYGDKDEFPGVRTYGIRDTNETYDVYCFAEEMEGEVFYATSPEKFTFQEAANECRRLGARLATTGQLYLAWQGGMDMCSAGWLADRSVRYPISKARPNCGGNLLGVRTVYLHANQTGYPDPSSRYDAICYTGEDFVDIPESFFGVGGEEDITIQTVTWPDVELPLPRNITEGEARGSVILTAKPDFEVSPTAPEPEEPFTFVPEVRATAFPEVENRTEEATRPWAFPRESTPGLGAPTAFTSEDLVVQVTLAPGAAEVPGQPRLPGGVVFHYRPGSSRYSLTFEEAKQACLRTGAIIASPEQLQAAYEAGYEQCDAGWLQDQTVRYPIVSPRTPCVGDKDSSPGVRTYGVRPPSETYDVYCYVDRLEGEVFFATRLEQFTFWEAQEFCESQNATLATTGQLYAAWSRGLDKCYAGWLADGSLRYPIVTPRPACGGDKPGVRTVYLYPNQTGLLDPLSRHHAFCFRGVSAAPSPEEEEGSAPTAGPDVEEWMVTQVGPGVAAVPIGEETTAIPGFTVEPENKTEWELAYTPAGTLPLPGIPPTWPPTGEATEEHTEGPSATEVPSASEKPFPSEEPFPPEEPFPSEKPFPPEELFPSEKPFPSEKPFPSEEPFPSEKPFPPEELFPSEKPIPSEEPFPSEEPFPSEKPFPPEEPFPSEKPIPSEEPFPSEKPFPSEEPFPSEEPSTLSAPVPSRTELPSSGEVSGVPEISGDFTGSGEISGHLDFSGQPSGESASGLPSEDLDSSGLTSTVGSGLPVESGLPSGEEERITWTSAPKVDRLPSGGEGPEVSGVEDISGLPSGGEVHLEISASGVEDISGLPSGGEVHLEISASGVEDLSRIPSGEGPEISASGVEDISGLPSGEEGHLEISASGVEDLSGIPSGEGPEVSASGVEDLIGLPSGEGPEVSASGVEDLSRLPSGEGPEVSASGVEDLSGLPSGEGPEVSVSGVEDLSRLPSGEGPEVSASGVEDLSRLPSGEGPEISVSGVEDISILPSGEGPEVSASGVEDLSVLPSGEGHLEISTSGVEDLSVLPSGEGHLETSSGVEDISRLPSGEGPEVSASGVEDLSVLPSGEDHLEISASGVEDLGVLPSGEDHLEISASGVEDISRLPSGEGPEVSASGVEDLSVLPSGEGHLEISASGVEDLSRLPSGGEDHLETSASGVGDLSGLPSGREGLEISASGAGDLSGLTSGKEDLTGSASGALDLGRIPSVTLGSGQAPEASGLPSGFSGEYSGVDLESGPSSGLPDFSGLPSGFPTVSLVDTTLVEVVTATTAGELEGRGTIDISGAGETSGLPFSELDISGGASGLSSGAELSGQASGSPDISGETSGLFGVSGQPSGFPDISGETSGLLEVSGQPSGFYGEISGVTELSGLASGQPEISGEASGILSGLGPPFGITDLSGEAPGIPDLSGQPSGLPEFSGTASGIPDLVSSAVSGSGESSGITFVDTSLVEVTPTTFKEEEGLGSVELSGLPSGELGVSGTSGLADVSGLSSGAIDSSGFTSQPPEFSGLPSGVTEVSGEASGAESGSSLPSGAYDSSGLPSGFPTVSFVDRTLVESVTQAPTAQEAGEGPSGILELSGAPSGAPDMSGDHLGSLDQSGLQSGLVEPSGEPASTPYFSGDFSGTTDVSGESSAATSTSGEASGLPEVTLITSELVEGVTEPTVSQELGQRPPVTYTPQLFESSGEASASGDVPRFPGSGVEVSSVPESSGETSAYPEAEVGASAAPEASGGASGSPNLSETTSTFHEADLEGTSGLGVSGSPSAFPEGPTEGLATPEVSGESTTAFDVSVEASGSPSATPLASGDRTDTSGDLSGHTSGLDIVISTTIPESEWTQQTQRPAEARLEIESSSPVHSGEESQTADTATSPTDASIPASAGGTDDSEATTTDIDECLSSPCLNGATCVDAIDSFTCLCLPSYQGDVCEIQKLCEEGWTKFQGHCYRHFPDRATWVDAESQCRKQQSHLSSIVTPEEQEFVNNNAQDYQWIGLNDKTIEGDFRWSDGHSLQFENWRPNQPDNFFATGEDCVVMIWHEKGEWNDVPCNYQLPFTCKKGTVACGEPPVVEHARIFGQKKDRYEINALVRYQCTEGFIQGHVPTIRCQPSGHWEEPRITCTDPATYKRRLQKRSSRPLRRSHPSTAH
molecule,measurement,setting,value
B1,Cytokines released by chondrocytes in response,"[1]; additional experiments, FIG. 10: BbHtrA^WT, BbHtrA^S226A","CCL5, CCL2, CXCL1, CCL1, sICAM-1, IL-6 and IL-8"
same,Cytokines released by chondrocytes in response,"[1]; initial experiments, FIG. 9A: BbHtrA, heat denatured BbHtrA","CXCL1, CCL1, sICAM-1, IL-6, IL-8 and CCL2"
same,"GROα/CXCL1 pixel density, Mean",[1]; [2],1.349
same,"I-309/CCL1 pixel density, Mean",[1]; [2],0.535
same,"IL-6 pixel density, Mean",[1]; [2],0.627
same,"IL-8 pixel density, Mean",[1]; [2],1.581
same,"MCP-1/CCL2 pixel density, Mean",[1]; [2],0.452
same,"RANTES/CCL5 pixel density, Mean",[1]; [2],0.736
same,"sICAM-1/CD54 pixel density, Mean",[1]; [2],0.890
same,Degradation of fibronectin,Plasma fibronectin,yielded distinct product bands
same,"Degradation of native, fully glycosylated aggrecan",Aggrecan,degraded
same,Degradation of decorin,Decorin,degrades
